The values that follow come from publication PMC12081870 (Communications Biology, 2025).

One assay deals with actin. Kind of assay: Pyrene actin assay, actin polymerisation in the absence of Arp2/3. Format: biochemical, rabbit. To be noted: no Arp2/3, 300 nM fragment, 3 µM actin. On the procedure: 300 nM each fragment; 3 µM actin. […] Error bars are standard error of mean.
Rabbit skeletal muscle actin was gel filtered as described. Concentrations of G-actin produced and used in experiments were in the range 35–65 µM.
(§1) Fluorometry assays were performed as described previously. 370 μl assays used 3 μM actin as indicated unless otherwise specified. Pyrene-actin was added to 5%, mixed thoroughly, and added to the fluorometry cuvette. Polymerization salts, 10× KME (500 mM KCl, 10 mM MgCl2, 10 mM EGTA, 100 mM Tris-HCl [pH 8.0]) were mixed with fragments or G buffer to give final concentration of 0.5× KME before reading fluorescence. […] Experiments were carried out three separate times with different protein preparations and a representative graph shown.

The subject of assay [1] is Las17 and las17 P387A expressing yeast strains. As to the kind of experiment: Latrunculin-A halo assay on yeast. The class given is cell-based, Saccharomyces cerevisiae. To be noted: 10 µl latrunculin-A disc, halo assay, 5 repeats. On the procedure: Supplementary Information.
Methods used in Supplementary Data
Yeast strains, growth and staining
Yeast plasmids used in this study are listed in Supplementary table 1 and yeast strains used in Supplementary table 2. Unless stated otherwise, cells were grown with rotary shaking at 30°C in liquid YPD medium (1% yeast extract, 2% Bacto-peptone, 2% glucose supplemented with 40 μg/ml adenine) or in synthetic medium (0.67% yeast nitrogen base, 2% glucose) with appropriate supplements. Growth assays used solid medium with 2% agar added to above. All strains carrying fluorescent tags have growth properties similar to isogenic control strains with the exception of strains carrying dual reporters where lifetimes were longer for both wild type and mutant strains (in Figure 9D). Point mutations in LAS17 were generated using site directed mutagenesis (Agilent). DNA cassettes carrying mutations for integration were transformed into KAY1801. Mutant colonies were counter-selected on minimal medium, containing 0.005% uracil and 0.1% 5’-Fluoroorotic Acid (5-FOA; Melford labs). […]
expressing strains on plates on which a disc carrying 10 µl of latrunculin-A of varying concentrations was placed (white disc). […] They were then scored according to the extent of uptake and categorised according to the key shown. >100 cells were visualised for each strain in each of 3 independent experiments. […]

Assay [2] concerns the target Las17 PPR-N fragment (residues 300-422), wild type (S. cerevisiae) (UniProt Q12446). Kind of assay: BLI; Octet R2 (Sartorius); Octet NTA Biosensors or Octet GST Biosensors, which partner was loaded is not stated; repeated three times; the constant of SH3#1-3 is called apparent. In general terms: In BLI a coated tip is dipped into the sample, and binding shifts an interference pattern.

Assay [3] relates to G-actin. As to the kind of experiment: MST, Las17 300-422 P387A / P388A to labelled G-actin. The class given is binding, rabbit. To be noted: three repeats, not statistically significant. An excerpt:
(§2) A Purified individual GST-tagged Sla1 SH3 domains were used to probe a Celluspot array consisting of a series of 12 amino acid peptides starting with residue 181, and subsequent peptides starting at two amino acid intervals, up to amino acid 540. Binding of GST-Sla1 SH3 to the array was identified by further probing of HRP-tagged anti-GST and subsequent visualisation using chemiluminescence. […] Error bars are standard error of mean.
The small reduction was not found to be statistically significant over three repeats.
(§3) Microscale Thermophoresis (MST) assays were performed as described previously. Briefly, rabbit muscle actin in G-buffer minus DTT was […] using Monolith NT^TM Protein Labelling Kit RED-Malemide (NanoTemper Technologies, Munich, Germany). […] Each reaction was then loaded into Monolith NT.115 Premium Treated Capillaries (NanoTemper Technologies) and thermophoresis was measured in a Monolith NT.115 Microscale Thermophoresis device (NanoTemper Technologies). Thermophoresis was measured at 20% red LED power and 40% IR laser power at 22°C. Fnorm was calculated from the ratio of fluorescence before heating and after the new equilibrium had been reached. […] Each experiment was carried out three separate times with protein from different protein preparations and mean ± SE shown except for Fig. 7a where mean ± SD is shown.

For assay [4], the system named is Las17 PPR-N fragment (residues 300-422). As to the kind of experiment: Biolayer Interferometry (BLI), Sla1 SH3 domains to Las17 PPR-N. The class given is binding, Saccharomyces cerevisiae. Conditions: Biolayer Interferometry. An excerpt:
(§4) To investigate binding characteristics of the SH3 domains further, Sla1 SH3 protein domains were purified. Three Sla1 SH3 single domains, tandem domains Sla1 SH3#1&2, Sla1 SH3#1&2 W108A (in which the W108A mutation prevents proline motif binding by SH3#2 but not SH3#1) and a fragment with all three SH3 domains were expressed recombinantly and purified. […] This outcome is in line with original research of Rodal and colleagues and with more recent studies of avidity developed by Williamson, which highlighted the importance of tandem binding SH3 domains[13],[27].
Biolayer Interferometry (BLI) assays were performed using an OctetⓇ R2 (Sartorius). Protein samples were placed into the wells of a polystyrene plate (ProxiPlateTM, Perkin Elmer) and binding measured either with Octet NTA Biosensors or Octet GST Biosensors. Screening assays were performed to determine the optimum loading concentration and time for each binding pair to ensure that the probe was not saturated. All experiments were repeated three times, each time with newly prepared protein. Analysis and visualisation were performed using GraphPad Prism 10.0.2.

Another assay relates to Las17. Kind of assay: Microscale thermophoresis, Sla1 SH3#2 to Las17. The class given is binding, Saccharomyces cerevisiae. To be noted: could not be saturated within the concentration range.
From the text: as §4, §3
On the technique in general: MST reads how a fluorescent partner responds to local heating, with and without ligand.

Assay [5] relates to Las17 12mer peptides / GST-Sla1 SH3 domains. Kind of assay: Peptide spot array (Celluspot) of Las17 12mers probed with GST-Sla1 SH3 domains. The class given is binding, Saccharomyces cerevisiae. Conditions: GST-Sla1 SH3 domain on 12mer array, 2-residue offset, anti-GST HRP, chemiluminescence. On the procedure: as §2
They were incubated with GST fused SH3 domains of Sla1 or with GST alone, as described in ref.[57]. Membranes were probed with HRP tagged anti-GST, and the presence of SH3-GST fusion protein was detected with ECL chemiluminescent detection solution (Thermo Fisher Scientific).

For assay [6], the system named is Las17-Arp2/3 mediated actin polymerisation. To be noted: 15 nM Las17, 1 µM Sla1 SH3 domains, ref [13]; cited from earlier work. The source says:
In Sla1 the first two SH3 domains are immediately juxtaposed with no linker. There are then 236 residues before the third SH3 domain (Fig. 1A).

In assay [7] the test system is G-actin. As to the kind of experiment: MST, Las17 300-422 to labelled G-actin in presence or absence of Sla1 SH3#1-3 (competition). Format: binding, rabbit. Conditions: Sla1 SH3#1-3 4.5 µM, actin 50 nM, Las17(300–422) 0.29-9.5 µM.
Method: The experiment was then repeated with the addition of Sla1 SH3#1-3 fragment at 4.5 µM.
Error bars are standard deviation.
Microscale Thermophoresis (MST) assays were performed as described previously[15]. Briefly, rabbit muscle actin in G-buffer minus DTT was lysine labelled using Monolith NT^TM Protein Labelling Kit RED-Malemide (NanoTemper Technologies, Munich, Germany). […] Each reaction was then loaded into Monolith NT.115 Premium Treated Capillaries (NanoTemper Technologies) and thermophoresis was measured in a Monolith NT.115 Microscale Thermophoresis device (NanoTemper Technologies). Thermophoresis was measured at 20% red LED power and 40% IR laser power at 22°C. Fnorm was calculated from the ratio of fluorescence before heating and after the new equilibrium had been reached.
Assay [8] concerns Las17-Arp2/3 mediated actin polymerisation. As to the kind of experiment: Pyrene actin assay, inhibition of Las17-Arp2/3 mediated actin polymerisation by Sla1 SH3 domains. Format: biochemical. Conditions: Actin 3 µM, Las17 300 nM, Sla1 SH3 domains 300 nM each (1:1), with Arp2/3. The protocol: SH3 domains of Sla1 are numbered #1, #2 and #3. […] PP in pink boxes indicate poly-proline tracts in this region. Other regions of Las17 are included but not to scale. B Representative pyrene actin assays show inhibition of Las17-Arp2/3 mediated actin polymerisation by Sla1-SH3 domains when added as separate domains (orange #1, green #2 or cyan #3) or on a single peptide (red). […] Sla1 SH3#1 (aa 3-68), SH3#3 (aa 354-413), SH3#1-2 (aa 5-131), SH3#1-3 (aa 5-413).
as §1

For the molecule “Las17(342–392): minimal Las17 fragment with two arginine-pair actin sites, left on GST tag”, the “stimulation of Arp2/3-independent actin polymerisation” value with actin is given as “unable to stimulate Arp2/3-independent actin polymerisation”.

With `C/C1=C/C(=O)O[C@@H]2C[C@@H](CC[C@H](C)/C=C\C=C\CC1)O[C@@](O)([C@@H]1CSC(=O)N1)C2` [latrunculin-A, reference compound], in assay [1], the “increase in Lat-A sensitivity of las17 P387A compared to wild type” value came to 7 fold.

Regarding Sla1 SH3#1&2 W108A (domain or fragment), the Kd in assay [2] was found to be 7.4 µM.

Turning to “Las17(300–633): Las17 fragment containing both PPR and VCA”, in the assay on actin, the “stimulation of Arp2/3-independent actin polymerisation” value is reported as “able to stimulate actin polymerisation in the absence of Arp2/3”.

As to “Las17 (300–422) P388A: Las17 (300–422) with P388A mutation”, the “effect on actin binding” value with G-actin [3] was “little change in actin binding”.

As to “Las17 (300–422) P387A: Las17 (300–422) with P387A mutation”, the “effect on actin binding” value in the assay with G-actin [3] was “little change in actin binding”.

B1: Sla1 SH3#2: second SH3 domain of Sla1, GST-Sla1 SH3#2 in pGEX4T1 (protein)
chain: PVLKKVRAIYDYEQVQNADEELTFHENDVFDVFDDKDADWLLVKSTVSNEFGFIPGNYVEPENG
modifications: left off: GST, end not stated, cleaved
notes: second SH3 domain of Sla1, GST-Sla1 SH3#2 in pGEX4T1
In the case of B1, the binding entry in [4] (result in words) is given as “showed no binding”; in the assay on Las17, “weak binding was detected”. The “binding to Las17 peptide spots” value in [5] is “only showed weak binding to spots”. Further, in assay [6], the “inhibition of actin polymerisation activity” value is “about 80%”.

B2: Sla1 SH3#1-3: SH3#1-3 (aa 5-413), fragment with all three SH3 domains (protein)
chain: LGIYRAVYAYEPQTPEELAIQEDDLLYLLQKSDIDDWWTVKKRVIGSDSEEPVGLVPSTYIEEAPVLKKVRAIYDYEQVQNADEELTFHENDVFDVFDDKDADWLLVKSTVSNEFGFIPGNYVEPENGSTSKQEQAPAAAEAPAATPAAAPASAAVLPTNFLPPPQHNDRARMMQSKEDQAPDEDEEGPPPAMPARPTATTETTDATAAAVRSRTRLSYSDNDNDDEEDDYYYNSNSNNVGNHEYNTEYHSWNVTEIEGRKKKKAKLSIGNNKINFIPQKGTPHEWSIDKLVSYDNEKKHMFLEFVDPYRSLELHTGNTTTCEEIMNIIGEYKGASRDPGLREVEMASKSKKRGIVQYDFMAESQDELTIKSGDKVYILDDKKSKDWWMCQLVDSGKSGLVPAQFIEPV
modifications: left off: GST, end not stated, cleaved
notes: SH3#1-3 (aa 5-413), fragment with all three SH3 domains
As for B2, the Kd in assay [4] (Octet R2, Las17 (aa 300-422), three repeats with newly prepared protein, read-out: binding affinity (Kd)) is 0.039 µM. Also, the “fold change in apparent Kd of actin for Las17” value with G-actin [7] is 40 fold; in the assay on G-actin [7] (listed as Sla1) it was 40.6 fold. Besides, the “inhibition of Las17-Arp2/3 mediated actin polymerisation” value in assay [8] is recorded as “substantial inhibition of actin polymerisation”. In [6], the “inhibition of actin polymerisation activity” value is on record as “about 85%”.
